From patent US7432093B2, “Soluble, functional apoptotic protease-activating factor 1 fragments” (The Trustees of Princeton University, priority 2004, dated 2008)

B1: 1-611: recombinant Apaf-1 protein, residues 1-611 (protein, UniProt O14727 1-611, looked up, fragment)
chain: MDAKARNCLLQHREALEKDIKTSYIMDHMISDGFLTISEEEKVRNEPTQQQRAAMLIKMILKKDNDSYVSFYNALLHEGYKDLAALLHDGIPVVSSSSGKDSVSGITSYVRTVLCEGGVPQRPVVFVTRKKLVNAIQQKLSKLKGEPGWVTIHGMAGCGKSVLAAEAVRDHSLLEGCFPGGVHWVSVGKQDKSGLLMKLQNLCTRLDQDESFSQRLPLNIEEAKDRLRILMLRKHPRSLLILDDVWDSWVLKAFDSQCQILLTTRDKSVTDSVMGPKYVVPVESSLGKEKGLEILSLFVNMKKADLPEQAHSIIKECKGSPLVVSLIGALLRDFPNRWEYYLKQLQNKQFKRIRKSSSYDYEALDEAMSISVEMLREDIKDYYTDLSILQKDVKVPTKVLCILWDMETEEVEDILQEFVNKSLLFCDRNGKSFRYYLHDLQVDFLTEKNCSQLQDLHKKIITQFQRYHQPHTLSPDQEDCMYWYNFLAYHMASAKMHKELCALMFSLDWIKAKTELVGPAHLIHEFVEYRHILDEKDCAVSENFQEFLSLNGHLLGRQPFPNIVQLGLCEPETSEVYQQAKLQAKQEVDNGMLYLEWINKKNITNLSRLVV
B2: 1-591 K160R: Apaf-1 fragment 1-591 of SEQ ID NO: 1 with K160R substitution (protein, listed as Homo sapiens)
chain: MDAKARNCLLQHREALEKDIKTSYIMDHMISDGFLTISEEEKVRNEPTQQQRAAMLIKMILKKDNDSYVSFYNALLHEGYKDLAALLHDGIPVVSSSSGKDSVSGITSYVRTVLCEGGVPQRPVVFVTRKKLVNAIQQKLSKLKGEPGWVTIHGMAGCGRSVLAAEAVRDHSLLEGCFPGGVHWVSVGKQDKSGLLMKLQNLCTRLDQDESFSQRLPLNIEEAKDRLRILMLRKHPRSLLILDDVWDSWVLKAFDSQCQILLTTRDKSVTDSVMGPKYVVPVESSLGKEKGLEILSLFVNMKKADLPEQAHSIIKECKGSPLVVSLIGALLRDFPNRWEYYLKQLQNKQFKRIRKSSSYDYEALDEAMSISVEMLREDIKDYYTDLSILQKDVKVPTKVLCILWDMETEEVEDILQEFVNKSLLFCDRNGKSFRYYLHDLQVDFLTEKNCSQLQDLHKKIITQFQRYHQPHTLSPDQEDCMYWYNFLAYHMASAKMHKELCALMFSLDWIKAKTELVGPAHLIHEFVEYRHILDEKDCAVSENFQEFLSLNGHLLGRQPFPNIVQLGLCEPETSEVYQQAKLQAKQEVDNG
B3: C115S: point mutation C115S made in SEQ ID NO: 1 (protein, listed as Homo sapiens)
chain: MDAKARNCLLQHREALEKDIKTSYIMDHMISDGFLTISEEEKVRNEPTQQQRAAMLIKMILKKDNDSYVSFYNALLHEGYKDLAALLHDGIPVVSSSSGKDSVSGITSYVRTVLSEGGVPQRPVVFVTRKKLVNAIQQKLSKLKGEPGWVTIHGMAGCGKSVLAAEAVRDHSLLEGCFPGGVHWVSVGKQDKSGLLMKLQNLCTRLDQDESFSQRLPLNIEEAKDRLRILMLRKHPRSLLILDDVWDSWVLKAFDSQCQILLTTRDKSVTDSVMGPKYVVPVESSLGKEKGLEILSLFVNMKKADLPEQAHSIIKECKGSPLVVSLIGALLRDFPNRWEYYLKQLQNKQFKRIRKSSSYDYEALDEAMSISVEMLREDIKDYYTDLSILQKDVKVPTKVLCILWDMETEEVEDILQEFVNKSLLFCDRNGKSFRYYLHDLQVDFLTEKNCSQLQDLHKKIITQFQRYHQPHTLSPDQEDCMYWYNFLAYHMASAKMHKELCALMFSLDWIKAKTELVGPAHLIHEFVEYRHILDEKDCAVSENFQEFLSLNGHLLGRQPFPNIVQLGLCEPETSEVYQQAKLQAKQEVDNG
B4: 1-567: recombinant Apaf-1 fragment, residues 1-567 of SEQ ID NO: 1 (protein, listed as Homo sapiens)
chain: MDAKARNCLLQHREALEKDIKTSYIMDHMISDGFLTISEEEKVRNEPTQQQRAAMLIKMILKKDNDSYVSFYNALLHEGYKDLAALLHDGIPVVSSSSGKDSVSGITSYVRTVLCEGGVPQRPVVFVTRKKLVNAIQQKLSKLKGEPGWVTIHGMAGCGKSVLAAEAVRDHSLLEGCFPGGVHWVSVGKQDKSGLLMKLQNLCTRLDQDESFSQRLPLNIEEAKDRLRILMLRKHPRSLLILDDVWDSWVLKAFDSQCQILLTTRDKSVTDSVMGPKYVVPVESSLGKEKGLEILSLFVNMKKADLPEQAHSIIKECKGSPLVVSLIGALLRDFPNRWEYYLKQLQNKQFKRIRKSSSYDYEALDEAMSISVEMLREDIKDYYTDLSILQKDVKVPTKVLCILWDMETEEVEDILQEFVNKSLLFCDRNGKSFRYYLHDLQVDFLTEKNCSQLQDLHKKIITQFQRYHQPHTLSPDQEDCMYWYNFLAYHMASAKMHKELCALMFSLDWIKAKTELVGPAHLIHEFVEYRHILDEKDCAVSENFQEFLSLNGHLLGRQPFPNIVQLG
B5: 1-589: recombinant Apaf-1 fragment, residues 1-589 of SEQ ID NO: 1 (protein, listed as Homo sapiens)
chain: MDAKARNCLLQHREALEKDIKTSYIMDHMISDGFLTISEEEKVRNEPTQQQRAAMLIKMILKKDNDSYVSFYNALLHEGYKDLAALLHDGIPVVSSSSGKDSVSGITSYVRTVLCEGGVPQRPVVFVTRKKLVNAIQQKLSKLKGEPGWVTIHGMAGCGKSVLAAEAVRDHSLLEGCFPGGVHWVSVGKQDKSGLLMKLQNLCTRLDQDESFSQRLPLNIEEAKDRLRILMLRKHPRSLLILDDVWDSWVLKAFDSQCQILLTTRDKSVTDSVMGPKYVVPVESSLGKEKGLEILSLFVNMKKADLPEQAHSIIKECKGSPLVVSLIGALLRDFPNRWEYYLKQLQNKQFKRIRKSSSYDYEALDEAMSISVEMLREDIKDYYTDLSILQKDVKVPTKVLCILWDMETEEVEDILQEFVNKSLLFCDRNGKSFRYYLHDLQVDFLTEKNCSQLQDLHKKIITQFQRYHQPHTLSPDQEDCMYWYNFLAYHMASAKMHKELCALMFSLDWIKAKTELVGPAHLIHEFVEYRHILDEKDCAVSENFQEFLSLNGHLLGRQPFPNIVQLGLCEPETSEVYQQAKLQAKQEVD
B6: 1-570: recombinant Apaf-1 fragment, residues 1-570 of SEQ ID NO: 1 (protein, listed as Homo sapiens)
chain: MDAKARNCLLQHREALEKDIKTSYIMDHMISDGFLTISEEEKVRNEPTQQQRAAMLIKMILKKDNDSYVSFYNALLHEGYKDLAALLHDGIPVVSSSSGKDSVSGITSYVRTVLCEGGVPQRPVVFVTRKKLVNAIQQKLSKLKGEPGWVTIHGMAGCGKSVLAAEAVRDHSLLEGCFPGGVHWVSVGKQDKSGLLMKLQNLCTRLDQDESFSQRLPLNIEEAKDRLRILMLRKHPRSLLILDDVWDSWVLKAFDSQCQILLTTRDKSVTDSVMGPKYVVPVESSLGKEKGLEILSLFVNMKKADLPEQAHSIIKECKGSPLVVSLIGALLRDFPNRWEYYLKQLQNKQFKRIRKSSSYDYEALDEAMSISVEMLREDIKDYYTDLSILQKDVKVPTKVLCILWDMETEEVEDILQEFVNKSLLFCDRNGKSFRYYLHDLQVDFLTEKNCSQLQDLHKKIITQFQRYHQPHTLSPDQEDCMYWYNFLAYHMASAKMHKELCALMFSLDWIKAKTELVGPAHLIHEFVEYRHILDEKDCAVSENFQEFLSLNGHLLGRQPFPNIVQLGLCE
B7: 1-554: recombinant Apaf-1 fragment, residues 1-554 of SEQ ID NO: 1 (protein, listed as Homo sapiens)
chain: MDAKARNCLLQHREALEKDIKTSYIMDHMISDGFLTISEEEKVRNEPTQQQRAAMLIKMILKKDNDSYVSFYNALLHEGYKDLAALLHDGIPVVSSSSGKDSVSGITSYVRTVLCEGGVPQRPVVFVTRKKLVNAIQQKLSKLKGEPGWVTIHGMAGCGKSVLAAEAVRDHSLLEGCFPGGVHWVSVGKQDKSGLLMKLQNLCTRLDQDESFSQRLPLNIEEAKDRLRILMLRKHPRSLLILDDVWDSWVLKAFDSQCQILLTTRDKSVTDSVMGPKYVVPVESSLGKEKGLEILSLFVNMKKADLPEQAHSIIKECKGSPLVVSLIGALLRDFPNRWEYYLKQLQNKQFKRIRKSSSYDYEALDEAMSISVEMLREDIKDYYTDLSILQKDVKVPTKVLCILWDMETEEVEDILQEFVNKSLLFCDRNGKSFRYYLHDLQVDFLTEKNCSQLQDLHKKIITQFQRYHQPHTLSPDQEDCMYWYNFLAYHMASAKMHKELCALMFSLDWIKAKTELVGPAHLIHEFVEYRHILDEKDCAVSENFQEFLSLNGHL
B8: 1-286: recombinant Apaf-1 fragment, residues 1-286 of SEQ ID NO: 1 (protein, listed as Homo sapiens)
chain: MDAKARNCLLQHREALEKDIKTSYIMDHMISDGFLTISEEEKVRNEPTQQQRAAMLIKMILKKDNDSYVSFYNALLHEGYKDLAALLHDGIPVVSSSSGKDSVSGITSYVRTVLCEGGVPQRPVVFVTRKKLVNAIQQKLSKLKGEPGWVTIHGMAGCGKSVLAAEAVRDHSLLEGCFPGGVHWVSVGKQDKSGLLMKLQNLCTRLDQDESFSQRLPLNIEEAKDRLRILMLRKHPRSLLILDDVWDSWVLKAFDSQCQILLTTRDKSVTDSVMGPKYVVPVESSL
B9: 1-349: recombinant Apaf-1 fragment, residues 1-349 of SEQ ID NO: 1 (protein, listed as Homo sapiens)
chain: MDAKARNCLLQHREALEKDIKTSYIMDHMISDGFLTISEEEKVRNEPTQQQRAAMLIKMILKKDNDSYVSFYNALLHEGYKDLAALLHDGIPVVSSSSGKDSVSGITSYVRTVLCEGGVPQRPVVFVTRKKLVNAIQQKLSKLKGEPGWVTIHGMAGCGKSVLAAEAVRDHSLLEGCFPGGVHWVSVGKQDKSGLLMKLQNLCTRLDQDESFSQRLPLNIEEAKDRLRILMLRKHPRSLLILDDVWDSWVLKAFDSQCQILLTTRDKSVTDSVMGPKYVVPVESSLGKEKGLEILSLFVNMKKADLPEQAHSIIKECKGSPLVVSLIGALLRDFPNRWEYYLKQLQNKQ

Type: physicochemical, E. coli
Procedure: Preferably, solubility of the fragment is assessed in a lysate of a bacterial culture used to produce the fragment at a concentration of at least 1 milligram per liter of bacterial culture.
All constructs for protein expression were generated using a standard PCR-based cloning strategy, and the identity of individual clones was verified by double-stranded plasmid sequencing. A soluble Apaf-1 fragment (residues 1-591, sequence (SEQ ID NO: 1) shown in FIG. 1) was over-expressed in Escherichia coli strain BL21(DE3) using plasmid vector pET29 having the nucleotide sequence described by Jiang et al. (2000, J. Biol. Chem. 275:31199-31203) operatively ligated therein. The coding sequence included an additional sequence encoding eight amino acid residues at its carboxy-terminal end (i.e., linked to residue 591 in the translated protein). These residues (Leu-Glu-His6) included a nickel-binding hexa-histidine sequence used for metal affinity chromatographic purification of the expressed protein. Soluble Apaf-1 was purified from the cell lysate using a Ni-NTA (nitrilotriacetic acid-ligated nickel; Qiagen) chromatography column. Dithiothreitol (DTT) and ethylenediamine tetraacetic acid (EDTA) were added to the eluted fraction in final concentrations of 5 millimolar each. After incubation for 30 minutes on ice, the protein solution was applied to an anion-exchange column (Source-15Q, Pharmacia) for further purification.
For B1, the “solubility and solution behavior (in words)” value was “good solubility and solution behavior”.
With B2 the Solubility was “++” and the “solubility and solution behavior (in words)” value was “without significant loss of activity or solubility”.
For B3, the “solubility and solution behavior (in words)” value was “without significant loss of activity or solubility”.
In the case of B4, the Solubility is reported as “+++” and the “solubility and solution behavior (in words)” value is reported as “good solubility and solution behavior”.
For B5, the Solubility was “++++”.
With B6 the Solubility was “+++” and the “solubility and solution behavior (in words)” value was “good solubility and solution behavior”.
For B7, the Solubility was “++” and the “solubility and solution behavior (in words)” value was “good solubility and solution behavior”.
With B8 the “solubility and solution behavior (in words)” value was “largely insoluble”.
For B9, the Solubility was “++” and the “solubility and solution behavior (in words)” value was “soluble to significant extent”.
